Data as given in US20240115742A1, “FLUORINATED FIBERS FOR MULTIMODAL 1H AND 19F MRI, ULTRASOUND, FLUORESCENCE DETECTION AND CONFORMATIONAL AND TEMPERATURE DETECTION BY 19F MRS” (New York University, priority 2022, published 2024).
“And” between values parts separate entries of the source, which are not always exact repeats. Equal entries are not always repeated.

Tests used:
Parallel plate rheology = format: physicochemical; conditions: 10 Hz, 5% strain
Protocol: Rheology. Mechanical integrity of the Q2 hydrogel was assessed using a stress-controlled rheometer (Discovery Hybrid Rheometer 2, TA Instruments) equipped with a parallel plate geometry. After complete gelation of a 2 mM sample at 4° C., the sample was loaded onto the 8 mm diameter lower and upper plates with a 0.2 mm geometry gap. Strain and frequency settings were informed from previous Q hydrogel studies where the storage modulus (G′) and loss modulus (G″) were measured over the frequency range 0.1-10 Hz with a 5% oscillation strain.
Rheology. Q hydrogel variants were assessed for relative mechanical integrity with a stress-controlled rheometer (Discovery Hybrid Rheometer 2, TA Instruments) equipped with a parallel plate geometry. In parallel with microrheology measurements, 100 μL of each variant was incubated at 4° C. Upon gelation as assessed by microrheology, hydrogels were loaded onto an 8 mm diameter lower and upper plate with a 0.2 mm geometry gap. Storage modulus (G′) and loss modulus (G″) were measured from 0.1-10 Hz with 5% oscillation strain.

[1] = TEM of hydrogel nanofibers; format: physicochemical; conditions: gel after incubation at 4 °C
Protocol: Transmission Electron Microscopy. Transmission electron microscopy (TEM) images were taken with a FEI Talos L120C transmission electron microscope. The supramolecular assembly of Q2 and Q were monitored over the course of 60 and 144 hours, respectively (in correspondence with tube inversion and microrheology). TEM images were taken of the gel at times consistent with when microrheological measurements for Q2 for consistent fibril sizing. Samples were diluted to 50 μM and 3 μL was spotted on Formvar/carbon-coated copper grids followed by 5 μL wash with water, and 3 μL staining with 1% v/v uranyl acetate solution each with incubation times of 1 min. Following imaging, fibrils were sized in ImageJ software (Version 1.52q).
(§1) Transmission Electron Microscopy. Transmission electron microscopy (TEM) images were taken with a FEI Talos L120C transmission electron microscope. Samples were diluted to 50 μM and 3 μL was spotted on Formvar/carbon-coated copper grids followed by a L wash with water, and 3 μL staining with 1% v/v uranyl acetate solution each with incubation times of 1 min. Between steps, filter paper was used to gently wick the grids dry. Following imaging, minimum diameter nanofibers within the physically crosslinked hydrogel were sized in ImageJ software (Version 1.52q).

[2] = Tube inversion concentration-temperature phase diagram; format: physicochemical; conditions: for solubility limit: 50 mM Tris, 500 mM NaCl, pH 8.0; for UCST: at solubility limit, extent of gelation η 0.5
Protocol: Tube Inversion Test. Immediately after concentration to 2 mM, the protein was incubated at 4° C. over the course of two weeks after aliquoting 150 μL into a 2 mL Eppendorf tube. The samples were visually assessed for gelation by inverting the tubes at 12-hour time intervals thereafter, with gelled samples not flowing upon inversion.
Gelation. To study the relative gelation of Q2 as compared to the previously reported coiled-coil hydrogel, Q, protein was successfully expressed (FIG. 24), purified (FIG. 25), and concentrated to 2 mM (1% w/v) in Tris buffer (50 mM Tris, 500 mM NaCl) at pH 8.0. Purity of the protein was measured to be >99% by SDS-PAGE (FIG. 26) and concentration was measured by BCA assay. Immediately following concentration, the gelation process of Q2 was studied using the microrheology assay described previously following incubation at 4° C. Separately, 150 μL samples were aliquoted for tube inversion tests performed after 2 weeks of incubation for visual assessment of gelation over time at 4° C. (FIG. 19a-d) and at concentrations from 1 mM to 3.5 mM with temperatures 5° C. to 25° C. using 0.5 mM and 5° C. step sizes, respectively, to create a matrix-based phase diagram (FIG. 19e). Temperature and concentration ranges were selected based on preliminary tube-inversion testing at high and low ends of the ranges.
Thermoresponsiveness and material strength. UCST behavior of protein hydrogels was assessed by testing […] samples via tube inversion in 2 mL microtubes after incubation for two weeks at various temperatures and concentrations. Temperature conditions were modulated in the range of 5-40° C. The concentration range was modified depending on if precipitation was visually noticeable in the microtube at an earlier concentration, indicating a solubility limit to our phase diagram, as has been done previously. […] As done with Q2, the UCST of the hydrogels was determined using a bivariate linear relationship for the extent of gelation where tubes that passed gelation by tube inversion were assigned a value of 1 (shown in black in FIG. 52a and FIG. 64a-d) and tubes that failed gelation by tube inversion (shown in red in FIG. 52a and FIG. 64a-d) were assigned a value of 0. The heatmap in FIG. 52a and FIG. 64a-d was used to denote the range of extent of gelation where the equation was employed to solve for the UCST using the solubility limit and solving for an extent of gelation, η, value of 0.5. The UCSTs (FIG. 52b) for the hydrogels studied here were 13.0° C., 35.9° C., 33.6° C., 17.5° C., and 22.9° C. for Q3-7, respectively, as compared to 17.0° C. for Q and 22.0° C. for Q2 found previously. Bivariate regression allowed for solving the coefficients for the dependence of temperature and concentration on gelation.
Tube Inversion. Binary sol-gel behavior was assessed using tube inversion. Immediately after concentration to 2 mM, 150 μL of Q hydrogel variants were incubated in 2 mL microtubes at 4° C. for two weeks. Gelation was visually observed by inverting the microtube and inspecting the sample for flow from the top of tube.

[3] = Fluorescence recovery after photobleaching (FRAP); conditions: one-phase association fit
Protocol: Protein fibrils are capable of blue autofluorescence as a result of protein self-assembly. Fluorescent recovery after photobleaching (FRAP) is measured by photobleaching using a 405 nm laser and measuring the spot intensity over time. This behavior was previously confirmed in the Q protein in a recent characterization. Using the correlation between autofluorescence and fibrilization, the relative autofluorescence of the coiled-coil protein hydrogels was measured. […] To assess the relative laser response, hydrogels were subjected to FRAP imaging using two 100% intensity bleaches at 405 nm excitation followed by imaging at 2 second frame intervals (FIG. 53c).
Confocal Imaging and Fluorescence Recovery After Photobleaching (FRAP). FRAP experiments were performed with a Stellaris 8 Falcon laser scanning confocal microscope on an inverted DMi8 CS stand equipped with 63X NA 1.4 lens. Images were taken with a laser at 405 nm excitation. A pre-bleach image was taken followed by two bleach images using 100% laser intensity for 1.5 s. Following, 41 images were taken post-bleach at 2 s intervals. To measure recovery, FIJI (version 2.3.0) was used to automate background and recovery imaging following photobleaching. Independent background intensities were fit to a one-phase decay equation in GraphPad Prism. Background loss, as a result of photobleaching, from fit values were added to spot intensity values before being fit to a one-phase association equation in GraphPad Prism.

TEM of protein fibers = format: physicochemical; conditions: fibers
Protocol: Transmission Electron Microscopy. Transmission electron microscopy (TEM) images were taken with a FEI Talos L120C transmission electron microscope. Protein fiber samples were diluted to 50 μM and 3 μL was spotted on Formvar/carbon-coated copper grids followed by 5 μL wash with water, and 3 μL staining with 1% v/v uranyl acetate solution each with incubation times of 1 min at RT. Fibrils were sized in ImageJ software (Version 1.52q).
as §1, with “a 5 μL” for “a L”, “to” for “to gently”, “the grids.” for “the grids dry.”, “imaging, fibrils” for “imaging, minimum diameter nanofibers within the physically crosslinked hydrogel”

Row | Substance | loss modulus G″ (Parallel plate rheology) | storage modulus G′ (Parallel plate rheology) | hydrogel fibril diameter (TEM) [1] | solubility limit [2] | UCST [2] | Halftime [3] | K [3] | Tau [3] | fiber diameter, largest population of sizes (TEM of protein fibers) | average protein fiber diameter (TEM) (TEM of protein fibers; 50 mM NaH2PO4 pH 4.0)
1 | Q4: Q hydrogel variant from Rosetta Monte Carlo search, SEQ ID NO: 13 (MRGSHHHHHHGSIEGRVKEITFIKKTIEQIAEEMKEINKAIHDIRHALENISKK) [Protein Q4] | 15.0 ± 3.2 Pa | 70±20 Pa and 69.9 ± 19.7 Pa | 27.2±8.7 nm | 4000 µM | 35.9 °C | 5.7 s | 0.1 s⁻¹ | 8.2 s |  | 
2 | Q6: Q hydrogel variant from trimodal Monte Carlo search, SEQ ID NO: 15 (MRGSHHHHHHGSIEGRVKEITFIKKQIEQIAEEMKEINKAIHDIRHALENISKK) [Protein Q6] | 13±6 Pa and 13.0 ± 5.7 Pa | 253±123 Pa and 252.9 ± 122.7 Pa | 39.9±16.9 nm | 3000 µM | 17.5 °C | 5.1 s | 0.1 s⁻¹ | 7.3 s |  | 
3 | Q9: Monte-Carlo output sequence with increased ΔEEbcf from the Q domain; probably SEQ ID NO: 18 (MRGSHHHHHHGSIEGRVKEIKFLKNTAPQQLRELQNTNMALQDVRELLQQQSTL) [Protein Q9] |  |  |  |  |  |  |  |  | 1280±330 nm | 760±170 nm
4 | Q7: Q hydrogel variant from trimodal Monte Carlo search, SEQ ID NO: 16 (MRGSHHHHHHGSIEGRVKEMTFIKKTIEQQAEEMKEINKAIHDIRHALENISKK) [Protein Q7] | 21±8 Pa and 20.6 ± 7.9 Pa | 298±62 Pa and 297.5 ± 61.7 Pa | 36.3±10.8 nm | 3000 µM | 22.9 °C | 9.7 s | 0.1 s⁻¹ | 13.9 s |  | 
